# Measurements as given in paper PMC3070544 (Structure (London, England : 1993), 2011).
# Target: the molecule itself
# Test: AUC
protein,measurement,value
"mouse E-cadherin EC1-5 ectodomain, wild type (domain or fragment, O-linked glycosylation observed in the structure) DWVIPPISCPENEKGEFPKNLVQIKSNRDKETKVFYSITGQGADKPPVGVFIIERETGWLKVTQPLDREAIAKYILYSHAVSSNGEAVEDPMEIVITVTDQNDNRPEFTQEVFEGSVAEGAVPGTSVMKVSATDADDDVNTYNAAIAYTIVSQDPELPHKNMFTVNRDTGVISVLTSGLDRESYPTYTLVVQAADLQGEGLSTTAKAVITVKDINDNAPVFNPSTYQGQVPENEVNARIATLKVTDDDAPNTPAWKAVYTVVNDPDQQFVVVTDPTTNDGILKTAKGLDFEAKQQYILHVRVENEEPFEGSLVPSTATVTVDVVDVNEAPIFMPAERRVEVPEDFGVGQEITSYTAREPDTFMDQKITYRIWRDTANWLEINPETGAIFTRAEMDREDAEHVKNSTYVALIIATDDGSPIATGTGTLLLVLLDVNDNAPIPEPRNMQFCQRNPQPHIITILDPDLPPNTSPFTAELTHGASVNWTIEYNDAAQESLILQPRKDLEIGEYKIHLKLADNQNKDQVTTLDVHVCDCEGTVNNCMKA",Kd,~100 µM
